Results on three molecules are retold here after patent US20030219813A1 (Takeda / Millennium, published 2003).

First the molecules themselves.
B1: human SCUBE2 (SEQ ID NO:4) (other)
chain: RAAGPQEDVDECAQGLDDCHADALCQNTPTSYKCSCKPGYQGEGRQCEDIDECGNELNGGCVHDCLNIPGNYRCTCFDGFMLAHDGHNCLDVDECLENNGGCQHTCVNVMGSYECCCKEGFFLSDNQHTCIHRSEEGLSCMNKDHGCSHICKEAPRGSVACECRPGFELAKNQRDCILTCNHGNGGCQHSCDDTADGPECSCHPQYKMHTDGRSCLEREDTVLEVTESNTTSVVDGDKRVKRRLLMETCAVNNGGCDRTCKDTSTGVHCSCPVGFTLQLDGKTCKDIDECQTRNGGCDHFCKNIVGSFDCGCKKGFKLLTDEKSCQDVDECSLDRTCDHSCINHPGTFACACNRGYTLYGFTHCGDVTTIRTSVTFKLNEGKCSLKNAELFPEGLRPALPEKHSSVKESFRYVNLTCSSGKQVPGAPGRPSTPKEMFITVEFELETNQKEVTASCDLSCIVKRTEKRLRKAIRTLRKAVHREQFHLQLSGMNLDVAKKPPRTSERQAESCGVGQGHAENQCVSCRAGTYYDGARERCILCPNGTFQNEEGQMTCEPCPRPGNSGALKTPEAWNMSECGGLCQPGEYSADGFAPCQLCALGTFQPEAGRTSCFPCGGGLATKHQGATSFQDCETRVQCSPGHFYNTTTHRCIRCPVGTYQPEFGKNNCVSCPGNTTTDFDGSTNITQCKNRRCGGELGDFTGYIESPNYPGNYPANTECTWTINPPPKRRILIVVPEIFLPIEDDCGDYLVMRKTSSSNSVTTYETCQTYERPIAFTSRSKKLWIQFKSNEGNSARGFQVPYVTYDEDYQELIEDIVRDGRLYASENHQEILKDKKLIKALFDVLAHPQNYFKYTAQESREMFPRSFIRLLRSKVSRFLRPYK
notes: protein of 919 amino acids; also called recombinantly expressed SCUBE2
B2: human SCUBE1 (SEQ ID NO:2) (other)
chain: AGGSGLPGSVDVDECSEGTDDCHIDAICQNAPKSYKCLCKPGYKGEGKQCGDIDECENDYYNGGCVHECINIPGNYRCTCFDGFMLAHDGHNCLDVDECQDNNGGCQQICVNAMGSYECQCHSGFFLSDNQHTCIHRSNEGMNCMNKDHGCAHICRETPKGGVACDCRPGFDLAQNQKDCTLTCNYGNGGCQHSCEDTDTGPTCGCHQKYAPHSDGRTCIETCAVNNGGCDRTCKDTATGVRCSCPVGFTLQPDGKTCKDINECLVNNGGCDHFCRNTVGSFECGCRKGYKLLTDERTCQDIDECSFERTCDHICINSPGSFQCLCHRGYILYGTTHCGDVDECSMSNGSCDQGCVNTKGSYECVCPPGRRLHWNRKDCVETGKCLSRAKTSPRAQLSCSKAGGVESCFLSCPAHTLFVPDSENSYVLSCGVPGPQGKALQKRNGTSSGLGPSCSDAPTTPIKQKARFKIRDAKCHLRPHSQARAKETARQPLLDHCHVTFVTLKCDSSKKRRRGRKSPSKEVSHITAEFEIETKMEEASDTCEADCLRKRAEQSLQAAIKTLRKSIGRQQFYVQVSGTEYEVAQRPAKALEGQGACGAGQVLQDSKCVACGPGTHFGGELGQCVPCMPGTYQDMEGQLSCTPCPSSDGLGLPGARNVSECGGQCSPGFFSADGFKPCQACPVGTYQPEPGRTGCFPCGGGLLTKHEGTTSFQDCEAKVHCSPGHHYNTTTHRCIRCPVGTYQPEFGQNHCITCPGNTSTDFDGSTNVTHCKNQHCGGELGDYTGYIESPNYPGDYPANAECVWHIAPPPKRRILIVVPEIFLPIEDECGDVLVMRKSASPTSITTYETCQTYERPIAFTSRSRKLWIQFKSNEGNSGKGFQVPYVTYDEDYQQLIEDIVRDGRLYASENHQEILKDKKLIKALFDVLAHPQNYFKYTAQESKEMFPRSFIKLLRSKVSRFLRPYK
modifications: glycosylated (N-linked, tunicamycin-sensitive)
notes: protein of 988 amino acids; also called Signal peptide-CUB-EGF-like domain-containing protein 1; recombinantly expressed SCUBE1
B3: Flag.SCUBE1-D2 (Flag-tagged deletion construct 2 of human SCUBE1, amino acids 26-411 of SEQ ID NO:2; spacer, 10th EGF-like domain and CUB domain deleted) (other, not shown: small tags and cut ends)
chain: SGLPGSVDVDECSEGTDDCHIDAICQNAPKSYKCLCKPGYKGEGKQCGDIDECENDYYNGGCVHECINIPGNYRCTCFDGFMLAHDGHNCLDVDECQDNNGGCQQICVNAMGSYECQCHSGFFLSDNQHTCIHRSNEGMNCMNKDHGCAHICRETPKGGVACDCRPGFDLAQNQKDCTLTCNYGNGGCQHSCEDTDTGPTCGCHQKYAPHSDGRTCIETCAVNNGGCDRTCKDTATGVRCSCPVGFTLQPDGKTCKDINECLVNNGGCDHFCRNTVGSFECGCRKGYKLLTDERTCQDIDECSFERTCDHICINSPGSFQCLCHRGYILYGTTHCGDVDECSMSNGSCDQGCVNTKGSYECVCPPGRRLHWNRKDCVETGKCLSRA

Data set [1] deals with the molecule itself. Kind of data set: overexpression; method not given.
The target in data set [2] is B1. The experiment in a line: overexpression; method not given.
Data set [3] has as its target T1, SCUBE1.Myc (human SCUBE1 tagged with Myc at the C-terminus, endogenous signal peptide) (human, UniProt Q8IWY4 23-988).
T1 construct: Expressed by transient transfection in HEK-293 / 293T cells; also called Myc-tagged human SCUBE1
T1 chain: B2 chain
The experiment in a line: co-immunoprecipitation of detergent lysates, anti-Myc IP, anti-Flag M2 blot (FIG. 8b). As for the experimental part: HEK-293 cells were transfected with expression plasmids encoding Flag-tagged full-length SCUBE1, SCUBE1-D1, SCUBE1-D2 and TLR2 (control) proteins, and, two days after transfection, cells were collected and homogenized. Samples of supernatant (S10) were centrifuged at 100,000×g for 30 min to give soluble fractions (S100) and pellets (P100 membrane fraction). Pellets were resuspended in original volumes of homogenization buffer with 0.1 M Na₂CO₃ (pH 12), sonicated briefly, and then incubated on ice for 30 min. Samples were centrifuged again at 100,000×g for 30 min. to give washed fractions S100′ and pellets P100′. Each fraction was subjected to SDS-PAGE and immunoblot analysis using anti-Flag M2 antibody. […] Upon disruption by sonication, however, they are released from the membrane and can be detected in the soluble membrane fraction. […] Flag-SCUBE1 and SCUBE1.Myc were singly or co-transfected in 293T cells. As a control, SCUBE1.Myc was expressed together with Flag-tagged IL-1β receptor (Flag.IL-1R1). Immunoprecipitation (IP) and Western blot (WB) were performed using antisera as indicated. The bands indicate the presence of protein complexes that can be precipitated by one antibody and detected by another. […] The spacer and CUB sequences are not required. […] In each case, a protein complex that could be precipitated with anti-Myc antibody was detected with anti-Flag M2 antibody.

For the molecule B1, in data set [1], the binding result is on record as “binds”.

Turning to B2, the binding result in data set [2] and in data set [1] was “binds” each time.

Turning to B3, in data set [3], the binding result is listed as “binds”.
